Experimental data published in paper PMC11957051.

Assays:
[1] = biological target: P. aeruginosa RloA2, PA0462 (18–169) (P. aeruginosa); assay: SEC-MALS
[2] = biological target: P. fluorescens RloA, Pfl01_1762 (20–178) (P. fluorescens); assay: SEC-MALS

Substance | stoichiometry N [1] | stoichiometry N [2]
P. aeruginosa RloA2, PA0462 (18–169) (enzyme) | 2 | –
P. fluorescens RloA, Pfl01_1762 (20–178) (enzyme) | – | 2
